# Laboratory results taken from article PMC4227788, “Architecture and ssDNA interaction of the Timeless-Tipin-RPA complex” (Nucleic Acids Research, 2014).
# B1: 14 nt ssDNA (SEC) (ssDNA)
# DNA: AGAAGAGCCAAAAC
# B2: 60 nt FAM ssDNA (ssDNA)
# DNA: ACGCTGCCGAATTCTACCAGTGCCTTGCTAGGACATCTTTGCCCACCTGCAGGTTCACCC
# B3: 31 nt ssDNA (SEC) (ssDNA)
# DNA: CGGGATCCCAGCCAGCGATGTCTCAAGCTGC
# B4: 14 nt FAM ssDNA (ssDNA)
# DNA: GACGGCATCCCTAA
# B5: Timeless (Tim, residues 1-1134) (domain or fragment, mouse, UniProt Q9R1X4 1-1134, looked up)
# chain: MDLYMMNCELLATCSALGYLEGGTYHKEPDCLESVKDLIRYLRHEDETRDVRQQLGAAQILQSDLLPILTQHRQDKPLFDAVIRLMVNLTQPALLCFGSVPKDSSVRHHFLQVLTYLQAYKEAFASEKAFGVLSETLYELLQLGWEDRQEEDNLLIERILLLVRNILHVPANLEQEKSIDDDASIHDRLLWAIHLSGMDDLLLFLSSSSAEQQWSLHVLEIISLMFRDQTPEQLAGVGQGRLAQERSTDVAELEVLRQREMAEKRARALQRGNRHSRFGGSYIVQGLKSIGEKDVVFHKGLHNLQNYSSDLGKQPRRVPKRRQAAQELSVHRRSVLNVRLFLRDFCSEFLENCYNPLMGAVKDHLLRERAQQHDETYYMWAMAFFMAFNRAATFRPGLVSETLSIRTFHFVEQNLTNYYEMMLTDRKEAASWARRMHLALKAYQELLATVNEMDMCPDEAVRESSRIIKNNIFYMMEYRELFLALFRKFDERYHPRSFLRDLVETTHLFLKMLERFCRSRGNLMVQNKRKKRKKKKKVQDQGVAFSQSPGELEAMWPALAEQLLQCAQDPELSVDPVVPFDAASEVPVEEQRVEAMVRIQDCLTAGQAPQALALLRSAREVWPEGNAFGSPVISPGEEMQLLKQILSTPLPRQQEPEEGDAEEEEEEEEEEELQVVQVSEKEFNFLEYLKRFASSTIVRAYVLLLRSYRQNSAHTNHCIAKMLHRLAHGLGMEALLFQLSLFCLFNRLLSDPAAAAYKELVTFAKYIIGKFFALAAVNQKAFVELLFWKNTAVVREMTQGYGSLDSGSSSHRAPLWSPEEEAQLQELYLAHKDVEGQDVVETILAHLKVVPRTRKQVIHHLVRMGLADSVKEFQKRKGTQIVLWTEDQELELQRLFEEFRDSDDVLGQIMKNITAKRSRARVVDKLLALGLVSERRQLYKKRRKKLAPSCMQNGEKSPRDPWQEDPEEEDEHLPEDESEDEESEEGLPSGQGQGSSSLSAENLGESLRQEGLSAPLLWLQSSLIRAANDREEDGCSQAIPLVPLTEENEEAMENEQFQHLLRKLGIRPPSSGQETFWRIPAKLSSTQLRRVAASLSQQENEEEREEEPEPGVPGEQGPSEEHRTEALRALLSAR
# notes: Timeless (Tim), mouse, AB019001, aa 1-1134; The Tim chain of m1, written alone for the pair Tim with Tipin; also called mTim; His-Tim; source: E. coli BL21 (DE3) gold with pRARE, co-expressed with Tipin, co-purified
# B6: 60 nt ssDNA (SEC) (ssDNA)
# DNA: CAGACCGCCACCGACTGCTTAGATATTTAAGTTTTCTAATTTTTCATTGAAAGCATTAAG
# What was measured:
# [1] = target: T1, RPA70/32/14 (RPA70ABC/32D-WH/14) (mouse, UniProt Q8VEE4;Q99KL9;Q9CQ71 190-623;43-270;1-121); assay: SEC; DNA-bound RPA released from Tim-Tipin-RPA mixture, 260/280 = 1.27 ± 0.05 and 1.22 ± 0.04; 20 mM Hepes pH 7.5, 125 mM NaCl, 2 mM DTT, 0.01 mM zinc acetate (Buffer A); EMSA 15 min RT + 15 min 4 C; FA 15 min 30 C, 10 nM DNA; details: protein: recombinant; tags: His; copies: 1;1;1
# T1 sequence (Q8VEE4 190-623, chain 1 of 3): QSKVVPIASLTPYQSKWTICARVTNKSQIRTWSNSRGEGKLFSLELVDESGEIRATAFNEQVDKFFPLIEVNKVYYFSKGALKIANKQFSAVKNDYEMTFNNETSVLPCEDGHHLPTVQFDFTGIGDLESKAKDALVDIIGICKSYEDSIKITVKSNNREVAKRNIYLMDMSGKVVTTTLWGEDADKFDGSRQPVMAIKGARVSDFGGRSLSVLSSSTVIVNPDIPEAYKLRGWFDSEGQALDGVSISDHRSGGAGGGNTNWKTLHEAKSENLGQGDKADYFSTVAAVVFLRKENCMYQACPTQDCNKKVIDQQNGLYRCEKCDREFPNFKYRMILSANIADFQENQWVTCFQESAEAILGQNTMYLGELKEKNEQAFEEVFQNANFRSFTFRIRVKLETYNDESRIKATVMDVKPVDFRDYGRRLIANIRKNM
# T1 sequence (chain, as listed by the source, chain 2 of 3): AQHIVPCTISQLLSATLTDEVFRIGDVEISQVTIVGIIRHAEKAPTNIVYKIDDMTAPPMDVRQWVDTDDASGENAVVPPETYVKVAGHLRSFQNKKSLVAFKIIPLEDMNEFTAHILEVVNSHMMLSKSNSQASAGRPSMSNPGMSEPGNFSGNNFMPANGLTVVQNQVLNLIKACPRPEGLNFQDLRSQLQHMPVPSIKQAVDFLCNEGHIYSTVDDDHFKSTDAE
# T1 sequence (Q9CQ71 whole entry, chain 3 of 3): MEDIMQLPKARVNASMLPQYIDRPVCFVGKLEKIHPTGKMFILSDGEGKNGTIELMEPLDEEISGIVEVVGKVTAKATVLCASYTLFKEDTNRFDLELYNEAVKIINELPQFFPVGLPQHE
# Tim-Tipin complex [2] = target: T2, Tim-Tipin complex (mouse, UniProt Q9R1X4;Q91WA1 1-1134;1-278); assay: SEC; 260/280 = 0.54, excess or substoichiometric DNA; 20 mM Hepes pH 7.5, 125 mM NaCl, 2 mM DTT, 0.01 mM zinc acetate (Buffer A); EMSA 15 min RT + 15 min 4 C; FA 15 min 30 C, 10 nM DNA; details: protein: recombinant; tags: His (Tim) and His-GST (Tipin), cleaved with 3C; copies: 1;1
# T2 sequence 1: B5 chain
# T2 sequence 2: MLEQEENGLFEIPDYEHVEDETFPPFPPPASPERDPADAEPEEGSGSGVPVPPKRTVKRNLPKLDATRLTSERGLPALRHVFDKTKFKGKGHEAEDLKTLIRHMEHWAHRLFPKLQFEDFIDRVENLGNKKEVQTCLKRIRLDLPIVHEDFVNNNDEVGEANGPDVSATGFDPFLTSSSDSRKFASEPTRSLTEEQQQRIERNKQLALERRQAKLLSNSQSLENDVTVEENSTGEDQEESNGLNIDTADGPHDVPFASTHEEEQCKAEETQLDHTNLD
# Tim-Tipin complex [3] = target: T2, Tim-Tipin complex; assay: fluorescence anisotropy; Hill n = 2.2 ± 0.1; 30 C; 20 mM Hepes pH 7.5, 125 mM NaCl, 2 mM DTT, 0.01 mM zinc acetate (Buffer A); EMSA 15 min RT + 15 min 4 C; FA 15 min 30 C, 10 nM DNA; details: protein: recombinant; tags: His (Tim) and His-GST (Tipin), cleaved with 3C; copies: 1;1; label: 5'-FAM
# [4] = target: T1, RPA70/32/14 (RPA70ABC/32D-WH/14); assay: EMSA; 1 RPA with excess DNA, up to 4 RPA at substoichiometric DNA; 20 mM Hepes pH 7.5, 125 mM NaCl, 2 mM DTT, 0.01 mM zinc acetate (Buffer A); EMSA 15 min RT + 15 min 4 C; FA 15 min 30 C, 10 nM DNA; details: protein: recombinant; tags: His; copies: 1;1;1; label: 5'-FAM
# [5] = target: T3, Tim-Tipin complex;RPA70/32/14 (RPA70ABC/32D-WH/14) (mouse;mouse, UniProt Q9R1X4;Q91WA1;Q8VEE4;Q99KL9;Q9CQ71 1-1134;1-278;190-623;43-270;1-121, |); assay: EMSA; excess DNA; partial dissociation; 20 mM Hepes pH 7.5, 125 mM NaCl, 2 mM DTT, 0.01 mM zinc acetate (Buffer A); EMSA 15 min RT + 15 min 4 C; FA 15 min 30 C, 10 nM DNA; details: protein: recombinant;recombinant; tags: His (Tim) and His-GST (Tipin), cleaved with 3C;His; copies: 1;1;1;1;1; label: 5'-FAM
# T3 sequence (Q8VEE4 190-623, chain 3 of 3): as the sequence (Q8VEE4 190-623, chain 1 of 3) above
# T3 sequence (chain, as listed by the source |, chain 4 of 3): as the sequence (chain, as listed by the source, chain 2 of 3) above
# T3 sequence (Q9CQ71 whole entry, chain 5 of 3): as the sequence (Q9CQ71 whole entry, chain 3 of 3) above
# [6] = target: T1, RPA70/32/14 (RPA70ABC/32D-WH/14); assay: SEC; excess DNA 260/280 = 1.46 ± 0.01; substoichiometric 1.28 ± 0.05; 20 mM Hepes pH 7.5, 125 mM NaCl, 2 mM DTT, 0.01 mM zinc acetate (Buffer A); EMSA 15 min RT + 15 min 4 C; FA 15 min 30 C, 10 nM DNA; details: protein: recombinant; tags: His; copies: 1;1;1
# [7] = target: T3, Tim-Tipin complex;RPA70/32/14 …; assay: SEC; excess DNA; intact complex, 260/280 = 1.11 ± 0.04; 20 mM Hepes pH 7.5, 125 mM NaCl, 2 mM DTT, 0.01 mM zinc acetate (Buffer A); EMSA 15 min RT + 15 min 4 C; FA 15 min 30 C, 10 nM DNA; details: protein: recombinant;recombinant; tags: His (Tim) and His-GST (Tipin), cleaved with 3C;His; copies: 1;1;1;1;1
# [8] = target: T1, RPA70/32/14 (RPA70ABC/32D-WH/14); assay: EMSA; 1 RPA per DNA; 20 mM Hepes pH 7.5, 125 mM NaCl, 2 mM DTT, 0.01 mM zinc acetate (Buffer A); EMSA 15 min RT + 15 min 4 C; FA 15 min 30 C, 10 nM DNA; details: protein: recombinant; tags: His; copies: 1;1;1; label: 5'-FAM
# Tim-Tipin complex [9] = target: T2, Tim-Tipin complex; assay: EMSA; 16 uM protein, 4-64 uM DNA; 20 mM Hepes pH 7.5, 125 mM NaCl, 2 mM DTT, 0.01 mM zinc acetate (Buffer A); EMSA 15 min RT + 15 min 4 C; FA 15 min 30 C, 10 nM DNA; details: protein: recombinant; tags: His (Tim) and His-GST (Tipin), cleaved with 3C; copies: 1;1; label: 5'-FAM
# [10] = target: T4, Tim interacting protein (Tipin, residues 1-278) (mouse, UniProt Q91WA1 1-278); assay: SEC; Tim and Tipin co-expressed in E. coli and co-purified (Ni-NTA, Q-sepharose, SEC on Superdex 200 16/60; 20 mM Hepes pH 7.0, 125 mM NaCl, 2 mM DTT); single peak; details: partners not purified
# T4 construct: The Tipin chain of m1, written alone for the pair Tim with Tipin; also called His-GST-Tipin; source: E. coli BL21 (DE3) gold with pRARE, co-expressed with Tim, co-purified
# T4 sequence (looked up): T2 sequence 2
# [11] = target: T1, RPA70/32/14 (RPA70ABC/32D-WH/14); assay: SEC; excess DNA 260/280 = 1.57 ± 0.05; substoichiometric 1.32 ± 0.03; 20 mM Hepes pH 7.5, 125 mM NaCl, 2 mM DTT, 0.01 mM zinc acetate (Buffer A); EMSA 15 min RT + 15 min 4 C; FA 15 min 30 C, 10 nM DNA; details: protein: recombinant; tags: His; copies: 1;1;1
# [12] = target: T3, Tim-Tipin complex;RPA70/32/14 …; assay: SEC; excess DNA; intact complex, 260/280 = 1.20 ± 0.04; 20 mM Hepes pH 7.5, 125 mM NaCl, 2 mM DTT, 0.01 mM zinc acetate (Buffer A); EMSA 15 min RT + 15 min 4 C; FA 15 min 30 C, 10 nM DNA; details: protein: recombinant;recombinant; tags: His (Tim) and His-GST (Tipin), cleaved with 3C;His; copies: 1;1;1;1;1
# Tim-Tipin complex [13] = target: T2, Tim-Tipin complex; assay: SEC; excess DNA; partial binding, 260/280 = 0.98 ± 0.14; 20 mM Hepes pH 7.5, 125 mM NaCl, 2 mM DTT, 0.01 mM zinc acetate (Buffer A); EMSA 15 min RT + 15 min 4 C; FA 15 min 30 C, 10 nM DNA; details: protein: recombinant; tags: His (Tim) and His-GST (Tipin), cleaved with 3C; copies: 1;1
binder,measurement,setting,value
B1,binding result,[1],binds
same,binding result,Tim-Tipin complex [2],no binding
B2,Kd,Tim-Tipin complex [3],290 ± 10 nM
same,binding result,[4],binds
same,binding result,[5],binds
B3,binding result,[6],binds
same,binding result,[7],binds
B4,binding result,[8],binds
same,binding result,Tim-Tipin complex [9],no binding
B5,stoichiometry N,[10],1
B6,binding result,[11],binds
same,binding result,[12],binds
same,binding result,Tim-Tipin complex [13],binds
